The data set can be described thus: protein stability index of a GFP-peptide fusion (yeast GPS) (PSI 1-4); higher = more stable; sorted into four equal gates, so the index is relative within each strain. Put shortly: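 Yeast carrying a pooled library were grown to mid-log phase in leucine-free medium. Each library plasmid expresses Cherry and has a tiled 17-residue yeast protein peptide fused downstream of GFP. Cells were sorted into four equal gates by GFP/Cherry ratio, and plasmids from each gate were PCR-amplified, Illumina-sequenced and assigned to strains by barcode. Summing, across gates, the read frequency times the gate number gave each peptide's protein stability index.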

± gives the uncertainty stated by the source.

ANLPANSSTSPAPSIPS [YLR335W/NUP2]: the protein stability index was 2.94 ± 0.037 (doa10∆), 3.1 ± 0.037 (pdr5∆), 2.95 ± 0.03 (san1∆) and 2.856 ± 0.027 (ubr1∆).

In the case of ANLPWLGKAQNWAKFTA [RPN2], the protein stability index by setting is: (doa10∆) 3.34 ± 0.085; (pdr5∆) 3.39 ± 0.091; (san1∆) 3.11 ± 0.087; (ubr1∆) 3.52 ± 0.082.

Take ANMATVPSTTNVNMTVN [MED6]: the protein stability index by setting is: (doa10∆) 2.92 ± 0.099; (pdr5∆) 3.08 ± 0.084; (ubr1∆) 2.93 ± 0.052.

ANNIVNIVSDAGANDTS [GRR1]: the protein stability index was found to be 3.2 ± 0.12 (doa10∆), 3.14 ± 0.074 (pdr5∆), 3.64 ± 0.1 (san1∆) and 3.13 ± 0.094 (ubr1∆).

As to ANRDDVKGRENELLLPS [RPC82], the protein stability index is, setting by setting: (doa10∆) 3.37 ± 0.14; (san1∆) 3.6 ± 0.09; (ubr1∆) 3.34 ± 0.084.

In the case of ANRSRFNNEAPPQTRKF [SMB1], the protein stability index reads like this: (doa10∆) 3.05 ± 0.083; (pdr5∆) 3.03 ± 0.049; (san1∆) 2.87 ± 0.069; (ubr1∆) 3.26 ± 0.047.

Turning to APGASVPATAAPGTEAG [SWI1], the protein stability index (doa10∆) was determined as 2.99 ± 0.094, the protein stability index (pdr5∆) is 3.05 ± 0.075, the protein stability index (san1∆) was 2.92 ± 0.079 and the protein stability index (ubr1∆) was 3.18 ± 0.07.

Take APGTEAGIVPVSANTPK [SWI1]: the protein stability index (doa10∆) turned out to be 3.06 ± 0.053, the protein stability index (pdr5∆) was 2.94 ± 0.065, the protein stability index (san1∆) was 3.08 ± 0.053 and the protein stability index (ubr1∆) amounted to 3.18 ± 0.054.

For APIPKQLLQRIPNIPPN [GAL11], the protein stability index reads like this: (doa10∆) 2.69 ± 0.063; (pdr5∆) 2.63 ± 0.066; (san1∆) 2.6 ± 0.07; (ubr1∆) 2.54 ± 0.049.

Turning to APKWYPSEDVAAPKKTR [RPL6B], the protein stability index came out at 2.13 ± 0.093 (doa10∆), 2.09 ± 0.065 (pdr5∆), 1.87 ± 0.092 (san1∆) and 1.98 ± 0.1 (ubr1∆).

The sequence APLAKVVFRDPYKYRLR [RPL2A] gave a protein stability index (doa10∆) of 2.93 ± 0.098, a protein stability index (pdr5∆) of 3.16 ± 0.1, a protein stability index (san1∆) of 3.07 ± 0.06 and a protein stability index (ubr1∆) of 3.13 ± 0.062.

On to APPLENENSNCLLSIPK [YML103C/NUP188], for which the protein stability index is, setting by setting: (doa10∆) 1.86 ± 0.058; (pdr5∆) 1.92 ± 0.057; (san1∆) 1.65 ± 0.16; (ubr1∆) 1.71 ± 0.059.

On to APQVYIITKNENFLKEV [GAL11], for which the protein stability index by setting is: (doa10∆) 3.37 ± 0.24; (ubr1∆) 3.5 ± 0.19.

As for APSVPEFIYLTKVLQFA [SNF2], the protein stability index is 2.82 ± 0.1 (doa10∆), 2.5 ± 0.087 (pdr5∆), 1.78 ± 0.12 (san1∆) and 2.91 ± 0.087 (ubr1∆).

With AQAQAQAQAQVYAQQST [PGD1], the protein stability index (doa10∆) was found to be 2.87 ± 0.053, the protein stability index (pdr5∆) turned out to be 3.05 ± 0.052, the protein stability index (san1∆) is 2.97 ± 0.045 and the protein stability index (ubr1∆) came to 3.01 ± 0.044.

With AQFAGRASIEYYVGQVM [DIS3], the protein stability index by setting is: (doa10∆) 3.46 ± 0.28; (pdr5∆) 2.84 ± 0.2; (san1∆) 2.64 ± 0.17.

Take AQFLRSVVHPGEMVGVL [RPO21]: the protein stability index runs as follows: (doa10∆) 2.23 ± 0.081; (pdr5∆) 1.93 ± 0.08; (san1∆) 2.3 ± 0.1; (ubr1∆) 1.49 ± 0.054.

AQGDPNLEPLIAKLVAV [NUT1] displayed a protein stability index (pdr5∆) of 1.87 ± 0.13, a protein stability index (san1∆) of 3.08 ± 0.19 and a protein stability index (ubr1∆) of 1.07 ± 0.088.

On to AQGLLHLGKGTMTMDVF [RPN1], for which the protein stability index reads like this: (doa10∆) 2.47 ± 0.065; (pdr5∆) 2.61 ± 0.066; (san1∆) 2.15 ± 0.081; (ubr1∆) 1.89 ± 0.058.

As to AQKNTQSYGGRPYGVGL [PRE5], the protein stability index stood at 3.38 ± 0.084 (doa10∆), 3.43 ± 0.075 (pdr5∆), 3.23 ± 0.076 (san1∆) and 3.26 ± 0.058 (ubr1∆).

As for AQKRVVSYMMPSLYRLL [SRB8], the protein stability index came to 1.18 ± 0.11 (doa10∆), 1.19 ± 0.067 (pdr5∆), 1.1 ± 0.12 (san1∆) and 1.29 ± 0.053 (ubr1∆).

For AQLDGRIGVLQARMMQQ [NSL1], the protein stability index reads like this: (doa10∆) 2.21 ± 0.055; (pdr5∆) 2.46 ± 0.043; (san1∆) 2.46 ± 0.056; (ubr1∆) 2.61 ± 0.048.

Turning to AQPSVQSSFAGTWSAKE [FAS2], the protein stability index is 2.74 ± 0.21 (doa10∆), 3.13 ± 0.14 (pdr5∆), 3.35 ± 0.076 (san1∆) and 3.09 ± 0.087 (ubr1∆).

AQYEVLANYLTSALSEL [QCR2]: the protein stability index stood at 1.94 ± 0.05 (doa10∆), 2.18 ± 0.04 (pdr5∆), 1.99 ± 0.067 (san1∆) and 1.68 ± 0.044 (ubr1∆).

On to ARERKTATYNDNMSEEQ [SNF2], for which the protein stability index (doa10∆) stood at 3.13 ± 0.11, the protein stability index (pdr5∆) is 2.91 ± 0.11, the protein stability index (san1∆) was found to be 3.46 ± 0.11 and the protein stability index (ubr1∆) was determined as 3.22 ± 0.085.

(Values after the supplement of paper PMC9732359.)
